From paper PMC7611929 (Nature structural & molecular biology, 2021)

B1: TRIM21 RING-Box-Coiled-Coil (T21RBCC; residues 1-235) (domain or fragment, UniProt P19474 1-235, looked up)
chain: MASAARLTMMWEEVTCPICLDPFVEPVSIECGHSFCQECISQVGKGGGSVCPVCRQRFLLKNLRPNRQLANMVNNLKEISQEAREGTQGERCAVHGERLHLFCEKDGKALCWVCAQSRKHRDHAMVPLEEAAQEYQEKLQVALGELRRKQELAEKLEVEIAIKRADWKKTVETQKSRIHAEFVQQKNFLVEEEQRQLQELEKDEREQLRILGEKEAKLAQQSQALQELISELDRR
B2: TRIM21 coiled-coil (T21CC235; residues 129-235) (domain or fragment, UniProt P19474 129-235, looked up)
chain: EEAAQEYQEKLQVALGELRRKQELAEKLEVEIAIKRADWKKTVETQKSRIHAEFVQQKNFLVEEEQRQLQELEKDEREQLRILGEKEAKLAQQSQALQELISELDRR

How the values were obtained:
[1] = biological target: the molecule itself; experiment: AUC
[2] = biological target: the molecule itself; experiment: SEC-MALS

Protein | binding result [1] | stoichiometry N [2]
B1 | binds | 
B2 |  | 2
